B1: unnamed (peptide)
chain: DKKTKPTPPPKPSHL
B2: unnamed (peptide)
chain: TKPTPPPKPSHLKPK
B3: unnamed (peptide)
chain: AKDLIVPRRPEWNEG

target: T1, Myo5, Q04439; experiment: SPOT array; details: median of control spots 471
T1 sequence (Q04439 1072-1160, looked up): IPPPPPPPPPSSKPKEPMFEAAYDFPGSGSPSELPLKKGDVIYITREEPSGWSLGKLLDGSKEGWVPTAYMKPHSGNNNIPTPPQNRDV

| Binder | SPOT intensity |
| --- | --- |
| B1 | 0 |
| B2 | 0 |
| B3 | 624 |

target: GST; experiment: SPOT array; details: median of control spots 978

| Binder | SPOT intensity |
| --- | --- |
| B1 | 0 |
| B2 | 0 |
| B3 | 446 |

target: T2, Boi1, P38041; experiment: SPOT array; details: median of control spots 1162
T2 sequence (P38041 1-86, looked up): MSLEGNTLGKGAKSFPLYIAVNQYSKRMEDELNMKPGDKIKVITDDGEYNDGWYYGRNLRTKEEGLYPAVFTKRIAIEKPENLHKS

| Binder | SPOT intensity |
| --- | --- |
| B1 | 3 |
| B2 | 0 |
| B3 | 1450 |

target: T3, Abp1, P15891; experiment: SPOT array; details: median of control spots 935
T3 sequence (P15891 535-592, looked up): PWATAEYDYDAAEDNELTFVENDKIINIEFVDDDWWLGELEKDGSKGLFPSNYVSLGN

| Binder | SPOT intensity |
| --- | --- |
| B1 | 410 |
| B2 | 631 |
| B3 | 766 |

target: T4, Lsb3, P43603; experiment: SPOT array; details: median of control spots 406
T4 sequence (P43603 385-451, looked up): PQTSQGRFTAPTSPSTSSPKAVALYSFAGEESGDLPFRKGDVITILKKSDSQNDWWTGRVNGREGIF

| Binder | SPOT intensity |
| --- | --- |
| B1 | 24 |
| B2 | 75 |
| B3 | 591 |

target: T5, Boi2, P39969; experiment: SPOT array; details: median of control spots 1161
T5 sequence (P39969 32-116, looked up): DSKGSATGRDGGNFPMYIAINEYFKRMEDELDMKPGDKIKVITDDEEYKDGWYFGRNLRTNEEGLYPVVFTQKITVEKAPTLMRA

| Binder | SPOT intensity |
| --- | --- |
| B1 | 2 |
| B2 | 0 |
| B3 | 1640 |

target: T6, Bzz1-2, P38822; experiment: SPOT array; details: median of control spots 4538
T6 sequence (P38822 568-633, looked up): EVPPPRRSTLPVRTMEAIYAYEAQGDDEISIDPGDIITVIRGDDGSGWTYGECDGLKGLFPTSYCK

| Binder | SPOT intensity |
| --- | --- |
| B1 | 0 |
| B2 | 0 |
| B3 | 2660 |

target: T7, Sla1-3, P32790; experiment: SPOT array; details: median of control spots 5475
T7 sequence (P32790 344-424, looked up): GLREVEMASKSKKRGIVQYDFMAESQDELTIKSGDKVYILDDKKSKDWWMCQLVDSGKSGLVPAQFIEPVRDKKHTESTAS

| Binder | SPOT intensity |
| --- | --- |
| B1 | 0 |
| B2 | 1 |
| B3 | 2730 |

target: Rvs167, P39743; experiment: SPOT array; details: median of control spots 2707
Sequence (P39743 419-482): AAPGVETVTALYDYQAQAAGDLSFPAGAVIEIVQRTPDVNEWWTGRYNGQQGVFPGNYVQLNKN

| Binder | SPOT intensity |
| --- | --- |
| B1 | 0 |
| B2 | 0 |
| B3 | 1950 |

target: Sho1, P40073; experiment: SPOT array; details: median of control spots 1148
Sequence (P40073 287-367): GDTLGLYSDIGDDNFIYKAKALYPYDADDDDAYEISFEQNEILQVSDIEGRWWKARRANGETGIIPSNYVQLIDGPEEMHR

| Binder | SPOT intensity |
| --- | --- |
| B1 | 115 |
| B2 | 199 |
| B3 | 1570 |

target: T8, Lsb1, P53281; experiment: SPOT array; details: median of control spots 388
T8 sequence (P53281 45-122, looked up): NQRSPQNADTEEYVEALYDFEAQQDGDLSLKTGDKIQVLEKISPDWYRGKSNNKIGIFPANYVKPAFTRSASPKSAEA

| Binder | SPOT intensity |
| --- | --- |
| B1 | 0 |
| B2 | 0 |
| B3 | 636 |

target: T9, Nbp2, Q12163; experiment: SPOT array; details: median of control spots 357
T9 sequence (Q12163 103-180, looked up): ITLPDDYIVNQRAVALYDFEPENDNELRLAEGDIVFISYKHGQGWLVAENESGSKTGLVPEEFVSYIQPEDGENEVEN

| Binder | SPOT intensity |
| --- | --- |
| B1 | 0 |
| B2 | 1 |
| B3 | 1390 |

target: T10, Bud14, P27637; experiment: SPOT array; details: median of control spots 956
T10 sequence (P27637 247-328, looked up): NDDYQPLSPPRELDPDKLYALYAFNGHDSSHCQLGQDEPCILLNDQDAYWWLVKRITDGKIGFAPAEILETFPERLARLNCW

| Binder | SPOT intensity |
| --- | --- |
| B1 | 1 |
| B2 | 1 |
| B3 | 480 |

target: T11, Hse1, P38753; experiment: SPOT array; details: median of control spots 1727
T11 sequence (P38753 208-285, looked up): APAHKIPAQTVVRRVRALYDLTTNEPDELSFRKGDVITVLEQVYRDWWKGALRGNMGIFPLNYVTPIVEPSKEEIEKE

| Binder | SPOT intensity |
| --- | --- |
| B1 | 4 |
| B2 | 11 |
| B3 | 1130 |

target: Myo3, P36006; experiment: SPOT array; details: median of control spots 468

| Binder | SPOT intensity |
| --- | --- |
| B1 | 0 |
| B2 | 0 |
| B3 | 461 |

target: Bem1-2, P29366; experiment: SPOT array; details: median of control spots 4347
Sequence (P29366 139-227): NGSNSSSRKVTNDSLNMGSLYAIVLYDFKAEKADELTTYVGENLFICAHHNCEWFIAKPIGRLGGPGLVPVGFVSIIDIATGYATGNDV

| Binder | SPOT intensity |
| --- | --- |
| B1 | 1 |
| B2 | 0 |
| B3 | 5580 |

target: Bem1-1, P29366; experiment: SPOT array; details: median of control spots 4282
Sequence (P29366 55-141): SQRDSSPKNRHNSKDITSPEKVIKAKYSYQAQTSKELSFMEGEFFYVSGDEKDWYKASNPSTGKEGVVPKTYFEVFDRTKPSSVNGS

| Binder | SPOT intensity |
| --- | --- |
| B1 | 0 |
| B2 | 0 |
| B3 | 3920 |

target: T12, Bbc1, P47068; experiment: SPOT array; details: median of control spots 796
T12 sequence (P47068 1-78, looked up): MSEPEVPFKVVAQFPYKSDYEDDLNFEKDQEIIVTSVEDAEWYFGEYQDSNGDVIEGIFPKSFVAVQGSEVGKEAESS

| Binder | SPOT intensity |
| --- | --- |
| B1 | 0 |
| B2 | 1 |
| B3 | 1050 |

target: T13, Bzz1-1, P38822; experiment: SPOT array; details: median of control spots 4446
T13 sequence (P38822 478-572, looked up): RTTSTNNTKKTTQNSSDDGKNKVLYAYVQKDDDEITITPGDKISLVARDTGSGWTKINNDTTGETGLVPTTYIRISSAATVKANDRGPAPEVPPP

| Binder | SPOT intensity |
| --- | --- |
| B1 | 1 |
| B2 | 0 |
| B3 | 2630 |

target: T14, Lsb4, P32793; experiment: SPOT array; details: median of control spots 397
T14 sequence (P32793 402-468, looked up): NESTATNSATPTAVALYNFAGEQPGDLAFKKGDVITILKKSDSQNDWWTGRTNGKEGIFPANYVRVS

| Binder | SPOT intensity |
| --- | --- |
| B1 | 0 |
| B2 | 5 |
| B3 | 768 |

target: T15, Cdc25, P04821; experiment: SPOT array; details: median of control spots 969
T15 sequence (P04821 50-136, looked up): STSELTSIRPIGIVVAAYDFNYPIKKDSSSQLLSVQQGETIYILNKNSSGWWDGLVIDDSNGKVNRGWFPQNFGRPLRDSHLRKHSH

| Binder | SPOT intensity |
| --- | --- |
| B1 | 1 |
| B2 | 2 |
| B3 | 347 |

target: T16, Pin3, Q06449; experiment: SPOT array; details: median of control spots 2171
T16 sequence (Q06449 53-122, looked up): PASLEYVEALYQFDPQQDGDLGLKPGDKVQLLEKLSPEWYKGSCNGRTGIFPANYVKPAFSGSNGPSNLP

| Binder | SPOT intensity |
| --- | --- |
| B1 | 0 |
| B2 | 0 |
| B3 | 694 |

target: T17, Fus1, P11710; experiment: SPOT array; details: median of control spots 1200
T17 sequence (P11710 432-512, looked up): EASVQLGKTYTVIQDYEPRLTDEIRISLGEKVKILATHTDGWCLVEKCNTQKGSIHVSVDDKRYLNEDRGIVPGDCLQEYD

| Binder | SPOT intensity |
| --- | --- |
| B1 | 0 |
| B2 | 2 |
| B3 | 1230 |

target: T18, Sla1-2, P32790; experiment: SPOT array; details: median of control spots 712
T18 sequence (P32790 60-140, looked up): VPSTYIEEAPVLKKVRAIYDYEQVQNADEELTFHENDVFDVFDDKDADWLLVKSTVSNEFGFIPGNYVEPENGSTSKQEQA

| Binder | SPOT intensity |
| --- | --- |
| B1 | 1 |
| B2 | 0 |
| B3 | 550 |

target: T19, Pex13, P80667; experiment: SPOT array; details: median of control spots 1341
T19 sequence (P80667 295-386, looked up): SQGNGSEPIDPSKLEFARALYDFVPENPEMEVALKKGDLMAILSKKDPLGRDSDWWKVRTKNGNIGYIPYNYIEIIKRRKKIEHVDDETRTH

| Binder | SPOT intensity |
| --- | --- |
| B1 | 4 |
| B2 | 266 |
| B3 | 567 |

target: T20, Cyk3, Q07533; experiment: SPOT array; details: median of control spots 1451
T20 sequence (Q07533 1-83, looked up): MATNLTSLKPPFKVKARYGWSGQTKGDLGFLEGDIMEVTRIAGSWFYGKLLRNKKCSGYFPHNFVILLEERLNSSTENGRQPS

| Binder | SPOT intensity |
| --- | --- |
| B1 | 0 |
| B2 | 1 |
| B3 | 2720 |

target: T21, Hof1, Q05080; experiment: SPOT array; details: median of control spots 4086
T21 sequence (Q05080 590-669, looked up): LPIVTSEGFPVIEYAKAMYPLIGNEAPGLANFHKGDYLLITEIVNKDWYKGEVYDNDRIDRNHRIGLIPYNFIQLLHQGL

| Binder | SPOT intensity |
| --- | --- |
| B1 | 3 |
| B2 | 3 |
| B3 | 5260 |

Source: PMC2756588
